# Read-outs that look alike come from different tables or passages of the source.
# T1: human IL-2 receptor (IL-2Rα/IL-2Rβ/γc) (human, UniProt P01589 22-272; P14784 27-551; P31785 23-369)
# T1 sequence 1: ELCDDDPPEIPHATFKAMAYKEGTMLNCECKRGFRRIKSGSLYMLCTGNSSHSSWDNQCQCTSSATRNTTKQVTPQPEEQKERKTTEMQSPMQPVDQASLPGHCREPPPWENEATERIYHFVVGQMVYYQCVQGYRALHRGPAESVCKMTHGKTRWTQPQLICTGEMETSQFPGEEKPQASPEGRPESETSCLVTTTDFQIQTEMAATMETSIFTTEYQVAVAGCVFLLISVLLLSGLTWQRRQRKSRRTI
# T1 sequence 2: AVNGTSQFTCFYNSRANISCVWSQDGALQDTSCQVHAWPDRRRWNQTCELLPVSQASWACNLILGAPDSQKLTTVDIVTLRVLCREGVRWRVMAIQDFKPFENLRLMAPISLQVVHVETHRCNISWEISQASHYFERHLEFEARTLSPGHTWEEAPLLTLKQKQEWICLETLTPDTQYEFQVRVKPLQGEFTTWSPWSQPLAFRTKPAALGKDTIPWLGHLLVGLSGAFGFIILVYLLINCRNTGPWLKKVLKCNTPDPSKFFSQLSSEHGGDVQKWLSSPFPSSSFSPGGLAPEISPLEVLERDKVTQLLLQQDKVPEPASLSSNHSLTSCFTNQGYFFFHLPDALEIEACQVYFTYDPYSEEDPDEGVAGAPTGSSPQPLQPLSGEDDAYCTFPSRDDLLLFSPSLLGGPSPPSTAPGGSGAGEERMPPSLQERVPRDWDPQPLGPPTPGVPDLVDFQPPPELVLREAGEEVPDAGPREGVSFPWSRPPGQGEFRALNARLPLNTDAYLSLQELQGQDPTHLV
# T1 sequence 3: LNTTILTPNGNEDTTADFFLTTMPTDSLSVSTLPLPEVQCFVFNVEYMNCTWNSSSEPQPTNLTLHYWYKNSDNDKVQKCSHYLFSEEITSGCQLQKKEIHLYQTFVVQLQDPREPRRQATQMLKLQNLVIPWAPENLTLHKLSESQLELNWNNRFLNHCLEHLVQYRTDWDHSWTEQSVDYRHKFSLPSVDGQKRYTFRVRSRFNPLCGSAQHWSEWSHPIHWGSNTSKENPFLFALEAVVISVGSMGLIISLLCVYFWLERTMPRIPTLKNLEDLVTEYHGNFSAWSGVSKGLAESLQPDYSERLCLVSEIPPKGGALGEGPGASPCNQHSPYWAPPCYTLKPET
# B1: DC00090 (other)
# chain 1: QLQLVESGGGLVQAGDSLRLSCAASGFNFGWHAMGWFRQAPGKEREFVATITWTGRDTYYADSVRGRFTISKDNAKDTLFLQMNSLRPDDTGVYYCAKARERATWAYSEDDCDYWGQGTQVTVSSDKTHTCPPCPAPEAAGGPSVFLFPPKPKDTLMISRTPEVTCVVVDVSHEDPEVKFNWYVDGVEVHNAKTKPREEQYNSTYRVVSVLTVLHQDWLNGKEYKCKVSNKALGAPIEKTISKAKGQPREPQVYTLPPSRDELTKNQVSLTCLVKGFYPSDIAVEWESNGQPENNYKTTPPVLDSDGSFLLYSKLTVDKSRWQQGNVFSCSVMHEALHNHYTQKSLSLSPGK
# chain 2: EVQLVESGGGLVQTGGSLRLSCAASGGTFSRDAMAWFRQVPGKEREFVALISWSGATTNYADSVKGRFAISRDNGKNTVYLQMNRLKPADTAIYYCAADRRPMGSRSYFEPTEYDDWGQGTQVTVSSGGGGSGGGGSGGGGSQVQLVESGGGLVQPGGSLRLSCATSGFTFRNNFMSWVRQAPGKGLEWVSTISYGGESTTYAESVKGRFTISRDNAKNTLYLQMNNLKPEDTAVYYCAKATSYDSIRSGSRGQGTQVTVSSGGGGSGGGGSGGGGSQVQLVESGGGLVQAGGSLTLSCAAPGRTFGTDVVGWFRQAPGKEREFVASISRSGDGIYYDDSVKGRFTISRNNAWNTVNLQMNSLKVEDTAVYYCAAGDGWSTYDYWGQGTQVTVSSGGGGSGGGGSGGGGSDKTHTCPPCPAPEAAGGPSVFLFPPKPKDTLMISRTPEVTCVVVDVSHEDPEVKFNWYVDGVEVHNAKTKPREEQYNSTYRVVSVLTVLHQDWLNGKEYKCKVSNKALGAPIEKTISKAKGQPREPQVYTLPPSRDELTKNQVSLTCLVKGFYPSDIAVEWESNGQPENNYKTTPPVLDSDGSFFLYSRLTVDKSRWQQGNVFSCSVMHEALHNHYTQKSLSLSPGK
# B2: DC00092 (other)
# chain 1: B1 chain 1
# chain 2: QVQLVESGGGLVQPGGSLRLSCATSGFTFRNNFMSWVRQAPGKGLEWVSTISYGGESTTYAESVKGRFTISRDNAKNTLYLQMNNLKPEDTAVYYCAKATSYDSIRSGSRGQGTQVTVSSGGGGSGGGGSGGGGSEVQLVESGGGLVQTGGSLRLSCAASGGTFSRDAMAWFRQVPGKEREFVALISWSGATTNYADSVKGRFAISRDNGKNTVYLQMNRLKPADTAIYYCAADRRPMGSRSYFEPTEYDDWGQGTQVTVSSGGGGSGGGGSGGGGSQVQLVESGGGLVQAGGSLTLSCAAPGRTFGTDVVGWFRQAPGKEREFVASISRSGDGIYYDDSVKGRFTISRNNAWNTVNLQMNSLKVEDTAVYYCAAGDGWSTYDYWGQGTQVTVSSGGGGSGGGGSGGGGSDKTHTCPPCPAPEAAGGPSVFLFPPKPKDTLMISRTPEVTCVVVDVSHEDPEVKFNWYVDGVEVHNAKTKPREEQYNSTYRVVSVLTVLHQDWLNGKEYKCKVSNKALGAPIEKTISKAKGQPREPQVYTLPPSRDELTKNQVSLTCLVKGFYPSDIAVEWESNGQPENNYKTTPPVLDSDGSFFLYSRLTVDKSRWQQGNVFSCSVMHEALHNHYTQKSLSLSPGK
# B3: DC00091 (other)
# chain 1: B1 chain 1
# chain 2: QVQLVESGGGLVQPGGSLRLSCATSGFTFRNNFMSWVRQAPGKGLEWVSTISYGGESTTYAESVKGRFTISRDNAKNTLYLQMNNLKPEDTAVYYCAKATSYDSIRSGSRGQGTQVTVSSGGGGSGGGGSGGGGSQVQLVESGGGLVQAGGSLTLSCAAPGRTFGTDVVGWFRQAPGKEREFVASISRSGDGIYYDDSVKGRFTISRNNAWNTVNLQMNSLKVEDTAVYYCAAGDGWSTYDYWGQGTQVTVSSGGGGSGGGGSGGGGSEVQLVESGGGLVQTGGSLRLSCAASGGTFSRDAMAWFRQVPGKEREFVALISWSGATTNYADSVKGRFAISRDNGKNTVYLQMNRLKPADTAIYYCAADRRPMGSRSYFEPTEYDDWGQGTQVTVSSGGGGSGGGGSGGGGSDKTHTCPPCPAPEAAGGPSVFLFPPKPKDTLMISRTPEVTCVVVDVSHEDPEVKFNWYVDGVEVHNAKTKPREEQYNSTYRVVSVLTVLHQDWLNGKEYKCKVSNKALGAPIEKTISKAKGQPREPQVYTLPPSRDELTKNQVSLTCLVKGFYPSDIAVEWESNGQPENNYKTTPPVLDSDGSFFLYSRLTVDKSRWQQGNVFSCSVMHEALHNHYTQKSLSLSPGK
# B4: DC00093 (other)
# chain 1: B1 chain 1
# chain 2: QVQLVESGGGLVQAGGSLTLSCAAPGRTFGTDVVGWFRQAPGKEREFVASISRSGDGIYYDDSVKGRFTISRNNAWNTVNLQMNSLKVEDTAVYYCAAGDGWSTYDYWGQGTQVTVSSGGGGSGGGGSGGGGSEVQLVESGGGLVQTGGSLRLSCAASGGTFSRDAMAWFRQVPGKEREFVALISWSGATTNYADSVKGRFAISRDNGKNTVYLQMNRLKPADTAIYYCAADRRPMGSRSYFEPTEYDDWGQGTQVTVSSGGGGSGGGGSGGGGSQVQLVESGGGLVQPGGSLRLSCATSGFTFRNNFMSWVRQAPGKGLEWVSTISYGGESTTYAESVKGRFTISRDNAKNTLYLQMNNLKPEDTAVYYCAKATSYDSIRSGSRGQGTQVTVSSDKTHTCPPCPAPEAAGGPSVFLFPPKPKDTLMISRTPEVTCVVVDVSHEDPEVKFNWYVDGVEVHNAKTKPREEQYNSTYRVVSVLTVLHQDWLNGKEYKCKVSNKALGAPIEKTISKAKGQPREPQVYTLPPSRDELTKNQVSLTCLVKGFYPSDIAVEWESNGQPENNYKTTPPVLDSDGSFFLYSRLTVDKSRWQQGNVFSCSVMHEALHNHYTQKSLSLSPGK
# B5: DC00060 (other)
# chain 1: QVQLVESGGGLVQPGGSLRLSCATSGFTFRNNFMSWVRQAPGKGLEWVSTISYGGESTTYAESVKGRFTISRDNAKNTLYLQMNNLKPEDTAVYYCAKATSYDSIRSGSRGQGTQVTVSSGGGGSGGGGSGGGGSEVQLVESGGGLVQTGGSLRLSCAASGGTFSRDAMAWFRQVPGKEREFVALISWSGATTNYADSVKGRFAISRDNGKNTVYLQMNRLKPADTAIYYCAADRRPMGSRSYFEPTEYDDWGQGTQVTVSSGGGGSGGGGSGGGGSDKTHTCPPCPAPEAAGGPSVFLFPPKPKDTLMISRTPEVTCVVVDVSHEDPEVKFNWYVDGVEVHNAKTKPREEQYNSTYRVVSVLTVLHQDWLNGKEYKCKVSNKALGAPIEKTISKAKGQPREPQVYTLPPSRDELTKNQVSLTCLVKGFYPSDIAVEWESNGQPENNYKTTPPVLDSDGSFLLYSKLTVDKSRWQQGNVFSCSVMHEALHNHYTQKSLSLSPGK
# chain 2: QVQLVESGGGLVQPGGSLRLSCATSGFTFRNNFMSWVRQAPGKGLEWVSTISYGGESTTYAESVKGRFTISRDNAKNTLYLQMNNLKPEDTAVYYCAKATSYDSIRSGSRGQGTQVTVSSGGGGSGGGGSGGGGSQVQLVESGGGLVQAGGSLTLSCAAPGRTFGTDVVGWFRQAPGKEREFVASISRSGDGIYYDDSVKGRFTISRNNAWNTVNLQMNSLKVEDTAVYYCAAGDGWSTYDYWGQGTQVTVSSGGGGSGGGGSGGGGSDKTHTCPPCPAPEAAGGPSVFLFPPKPKDTLMISRTPEVTCVVVDVSHEDPEVKFNWYVDGVEVHNAKTKPREEQYNSTYRVVSVLTVLHQDWLNGKEYKCKVSNKALGAPIEKTISKAKGQPREPQVYTLPPSRDELTKNQVSLTCLVKGFYPSDIAVEWESNGQPENNYKTTPPVLDSDGSFFLYSRLTVDKSRWQQGNVFSCSVMHEALHNHYTQKSLSLSPGK
# Legend:
# [1] = molecular target: T1, human IL-2 receptor (IL-2Rα/IL-2Rβ/γc); assay: cell-based or functional assay
# [2] = molecular target: T1, human IL-2 receptor (IL-2Rα/IL-2Rβ/γc); assay: cell-based or functional assay; remark: listed apart in the source
Binder,"EC50 (nM) pSTAT5, NK, human PBMCs [1] [nM]","EC50 (nM) pSTAT5, Treg, human PBMCs [1]",Fold Max signal (% pSTAT5+) Treg/NK [1] [fold],"Max signal (% pSTAT5+), NK [1] [% pSTAT5+]","Max signal (% pSTAT5+), Treg [1] [% pSTAT5+]",fold EC50 NK/Treg [1] [fold],"EC50 (nM) pSTAT5, NK, human PBMCs [2] [nM]","EC50 (nM) pSTAT5, Treg, human PBMCs [2] [nM]",Fold Max signal (% pSTAT5+) Treg/NK [2] [fold],"Max signal (% pSTAT5+), NK [2] [% pSTAT5+]","Max signal (% pSTAT5+), Treg [2] [% pSTAT5+]",fold EC50 NK/Treg [2] [fold]
B1,0.572,< 0.1 pM,9,2.67,23.5,> 5720,,,,,,
B2,,< 0.1 pM,6,4.82,26.7,,,,,,,
B3,0.307,< 0.1 pM,5,14.5,67.7,> 3070,,,,,,
B4,0.0752,0.735 nM,6,11.4,66.7,,,,,,,
B5,0.769,0.00215 nM,8,2.49,19.8,358,0.645,0.00334,7,8,56,193

# Source: patent US20240409645A1 (DUALYX, published 2024)
